Experimental data as given in the supplement of paper PMC9732359.
± gives the uncertainty stated by the source.

Assay: protein stability index of a GFP-peptide fusion (yeast GPS) (PSI 1-4); higher = more stable; sorted into four equal gates, so the index is relative within each strain
How it was run: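 Tiled 17-residue peptides from yeast proteins were fused downstream of GFP on a plasmid that also expresses Cherry, and the pooled library was carried in yeast. Mid-log cultures grown in leucine-free medium were sorted into four equal gates by GFP/Cherry fluorescence ratio. Plasmids from each gate were PCR-amplified and Illumina-sequenced, and reads were assigned to strains by barcodes. Each peptide's protein stability index is the sum, over gates, of the gate's read frequency multiplied by its gate number.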

Row | Sequence | protein stability index (doa10∆) | protein stability index (pdr5∆) | protein stability index (san1∆) | protein stability index (ubr1∆)
1 | PWFWLLPLWHLLNRIPR [POP1] | 2.57 ± 0.084 | 1.56 ± 0.054 | 1.33 ± 0.12 | 1.26 ± 0.046
2 | ILSDSPLELSAPIGKHY [DIS3] | 1.71 ± 0.13 | – | – | 2.39 ± 0.17
3 | SQCRLHELREKERISVA [PRE2] | 2.25 ± 0.11 | 2.59 ± 0.097 | 2.87 ± 0.097 | 1.67 ± 0.04
4 | FVPVPALSAYHKVQTKL [RPS7B] | 2.42 ± 0.046 | 2.52 ± 0.046 | 2.27 ± 0.057 | 2.55 ± 0.032
5 | RTVKNILVSVLPGTEKG [CSL4] | 1.65 ± 0.27 | – | – | –
6 | DVKLLHSQFMKDLKDDS [YJL039C/NUP192] | 2.72 ± 0.075 | 2.85 ± 0.091 | 2.98 ± 0.077 | 2.72 ± 0.055
7 | YKLGKVKKVQLGKKGVP [RPS4A] | 2.85 ± 0.14 | 2.98 ± 0.16 | 3.19 ± 0.049 | 2.94 ± 0.11
8 | SDPVCLFVCNKDPDVPL [POP3] | 1.91 ± 0.053 | 2.35 ± 0.075 | 2.31 ± 0.084 | 2.52 ± 0.081
9 | ISTLQVKLYGREGSSAR [RPB2] | 2.71 ± 0.17 | 2.77 ± 0.1 | 2.77 ± 0.18 | 2.8 ± 0.086
10 | ASGFGFGGSQPNSGTAT [YGR119C/NUP57] | 3.19 ± 0.14 | 2.74 ± 0.086 | 2.4 ± 0.11 | 2.87 ± 0.094
11 | VNTEKKTIEVTAEINCF [RPN3] | – | 1.35 ± 0.11 | 1.78 ± 0.21 | 1.62 ± 0.16
12 | ELSVVLSGIIQDIYYLA [RRI2] | 2.32 ± 0.12 | 2.24 ± 0.14 | 2.02 ± 0.13 | 2.6 ± 0.092
13 | TPSTNEPYARVSGDLNP [FAS1] | 2.96 ± 0.074 | 2.6 ± 0.077 | 2.46 ± 0.15 | 2.39 ± 0.073
14 | MENNEPAMAMEDLKNFI [SRB8] | 3.18 ± 0.074 | 3.29 ± 0.081 | 3.24 ± 0.043 | 3.08 ± 0.068
15 | KLQLSFVLQMVGKTAQS [SRP72] | – | – | 1.42 ± 0.16 | –
16 | QFCGIKERNSLKKLKAM [BRR2] | 3 ± 0.23 | 3.25 ± 0.12 | 2.25 ± 0.27 | 2.99 ± 0.11
17 | LSSELDSNKTLLHNHLK [SMC2] | 3.21 ± 0.059 | 3.26 ± 0.058 | 3.17 ± 0.048 | 3.2 ± 0.039
18 | KLVRESELLGGTFKSTL [QCR2] | 2.53 ± 0.12 | 2.82 ± 0.1 | 2.35 ± 0.093 | 3.18 ± 0.063
19 | PYLVANVVEVMDMNEIE [RPT5] | 2.86 ± 0.093 | 2.19 ± 0.063 | 1.91 ± 0.077 | 2.32 ± 0.069
20 | TSMNGVHNTVAAGNASS [SNF5] | 2.73 ± 0.043 | 2.74 ± 0.037 | 2.76 ± 0.05 | 2.76 ± 0.051
21 | YGLGLIYAGFGRDTTDY [RPN2] | 3.37 ± 0.12 | 3.03 ± 0.1 | 2.95 ± 0.084 | 3.28 ± 0.088
22 | FKSYATRTVITDWDPQF [SMC2] | 2.88 ± 0.11 | 3.06 ± 0.083 | 2.72 ± 0.12 | 2.85 ± 0.097
23 | LLREYDILSQILYGLVD [YJL039C/NUP192] | 2.49 ± 0.081 | 2.06 ± 0.12 | 2.07 ± 0.11 | 2.19 ± 0.064
24 | RANLRKYREGQVLFQGL [POP1] | 2.83 ± 0.095 | 2.31 ± 0.071 | 2.02 ± 0.088 | 2.96 ± 0.063
25 | ENDAKKSKGDVDIKGED [NUT1] | 3.18 ± 0.12 | 3.27 ± 0.2 | 2.95 ± 0.16 | 3.2 ± 0.12
26 | PEYLAMYGLTMEWPKDM [ITC1] | 2.45 ± 0.074 | 2.34 ± 0.11 | 2.23 ± 0.14 | 2.14 ± 0.072
27 | ERPPLLPILPIQRLRLL [YOR098C/NUP1] | 1.34 ± 0.1 | 2.36 ± 0.12 | 1.95 ± 0.18 | 1.9 ± 0.11

Row | Sequence | protein stability index (doa10∆) | protein stability index (pdr5∆) | protein stability index (san1∆) | protein stability index (ubr1∆)
28 | VTKETVHPRKSYKMNSS [PRP8] | 3.03 ± 0.11 | 3.02 ± 0.086 | 2.96 ± 0.048 | 2.9 ± 0.065
29 | SYPILNESSTFLKLVLS [SIN4] | 1.97 ± 0.035 | 2.27 ± 0.034 | 2.11 ± 0.05 | 2.22 ± 0.031
30 | EKRHKNVPVHVSPAFRV [RPS11A] | 1.8 ± 0.051 | 2.72 ± 0.077 | 2.9 ± 0.07 | 2.75 ± 0.053
31 | PDENHDNTSHDEQDDDN [BRN1] | 3.11 ± 0.1 | 3.2 ± 0.095 | 3.05 ± 0.12 | 3.11 ± 0.1
32 | VGGCKDQIEKLREVVEL [RPT1] | 3.37 ± 0.071 | 3.4 ± 0.063 | 3.4 ± 0.048 | 3.33 ± 0.061
33 | IANMVLPPEKIYSPLHS [SIR2] | 1.54 ± 0.035 | 1.99 ± 0.036 | 1.73 ± 0.05 | 1.67 ± 0.032
34 | WQIEEAGNSQITSGGFL [SRB5] | 2.98 ± 0.2 | 3.13 ± 0.17 | 3.07 ± 0.25 | 3.23 ± 0.14
35 | VTRTQQWSMVAQRLQIS [SWI1] | 2.05 ± 0.051 | 1.89 ± 0.049 | 2.27 ± 0.07 | 2.06 ± 0.04
36 | ARAPKYASKAVPHYNRL [RPL25] | 2.94 ± 0.078 | 3 ± 0.065 | 2.79 ± 0.052 | 2.98 ± 0.047
37 | WNRADNHFKDTYGFSIL [FAS1] | 3.07 ± 0.12 | 2.57 ± 0.069 | 3.35 ± 0.083 | 3.27 ± 0.092
38 | FVSRIPIMFQDFDDSTA [IRR1] | 2.1 ± 0.04 | 1.96 ± 0.042 | 1.69 ± 0.053 | 2 ± 0.03
39 | PQTPLVEPVTERTKLQE [SNU114] | 3.29 ± 0.15 | 3.07 ± 0.18 | 3.08 ± 0.1 | 3.31 ± 0.13
40 | GSELSSKIRKIHIQETQ [SIR3] | 2.61 ± 0.069 | 2.54 ± 0.084 | 2.58 ± 0.075 | 2.68 ± 0.056
41 | NNTNTGASGVDDFQNFF [SWI1] | 2.92 ± 0.068 | 3.16 ± 0.065 | 2.87 ± 0.069 | 3.31 ± 0.045
42 | AGFDPRDDEPKLYQTEP [PRE6] | 3.24 ± 0.084 | 3.03 ± 0.12 | 3.1 ± 0.05 | 3.24 ± 0.07
43 | TNLKMKRKWSYVLYAKI [RRP43] | 1.71 ± 0.058 | 2.37 ± 0.042 | 1.75 ± 0.16 | 2.09 ± 0.15
44 | LEHLHSTAFQNTPLSLP [COR1] | 2.52 ± 0.039 | 2.66 ± 0.033 | 2.35 ± 0.035 | 2.65 ± 0.039
45 | LEQREQNENLPSDKSDS [SSN2] | 3.16 ± 0.07 | 3.09 ± 0.071 | 3.04 ± 0.057 | 3.12 ± 0.056
46 | AQAWINLGEYYAQIGDK [RPN7] | 2.41 ± 0.11 | 2.77 ± 0.1 | 2.8 ± 0.11 | 2.76 ± 0.12
47 | RKDKDAKFRLILIESRI [RPS13] | 1.52 ± 0.094 | 1.82 ± 0.12 | 1.9 ± 0.11 | 2.57 ± 0.11
48 | ELGVSIYDFPGTPEATK [NUT2] | 2.92 ± 0.076 | 3.06 ± 0.098 | 3.06 ± 0.078 | 3.04 ± 0.048
49 | WESLAKKQNLSSHQRVF [SWP82] | 2.77 ± 0.063 | 2.71 ± 0.071 | 2.83 ± 0.06 | 2.91 ± 0.053
50 | HNKLNITSDALEGITTT [SMC3] | 3.19 ± 0.16 | 3.09 ± 0.15 | 3.03 ± 0.092 | 3.1 ± 0.092
51 | EFNSIDRVIFRVPIRSE [PRP8] | 3.32 ± 0.089 | 3.33 ± 0.097 | 3.21 ± 0.13 | 3.11 ± 0.046
52 | PANNHQLGLQTVIRGNS [SMX2] | 3.02 ± 0.077 | 3.19 ± 0.086 | 2.91 ± 0.074 | 2.85 ± 0.053
53 | LTESQTETYISDLVNQG [RPN5] | 3.18 ± 0.076 | 3.38 ± 0.071 | 3.12 ± 0.051 | 3.21 ± 0.071
